Measured values reported in patent US20130011380A1 (published 2013).

What was measured:
Experiment in all cases: anti-Flag IP-MS, mES nuclear extract
[1] = molecular target: Lmo7 (mouse, UniProt E9PYF4 24-1649)
Source text: (§1) Mass spectrometry was used to identify the potential interactors of AID and understand the functional molecular players that orchestrate mammalian DNA demethylation. The following AID constructs were used: 1) human AID containing two tandem Flag tags at the N-terminus of the protein, cloned into the pHAGE-STEMCCA lentiviral vector, and 2) human AID containing two tandem Flag tags at the C-terminus of the protein, cloned into the pHAGE-STEMCCA lentiviral vector. Virus containing these constructs was subsequently used to infect mouse embryonic stem cells (CGR8), and stable cell lines overexpressing Flag-human AID were selected. As a control, the lentiviral vector containing only the 2× Flag tag was used.
(§2) The stable ES cell lines expressing AID and Control 2× Flag were fractionated into cytoplasmic and nuclear extracts for immunoprecipitating the AID protein using an antibody against the Flag tag. The resulting complex was subjected to mass spectrometric analyses.
(§3) TABLE 5 After immunoprecipitation, AID and the interacting proteins were identified by mass spectrometry (MS). All proteins were subjected to trypsin digestion to break them down into smaller peptides, and run through a mass spectrometer. Column C indicates the number of unique peptides of a particular protein detected by MS analysis, to be associated with the AID-Flag protein. Column D represents the number of peptides associated with the Flag only protein. The higher the number of unique peptides (>3) that are associated with AID, but not with the Flag protein, the stronger the indication of the specificity of the interaction. Columns E and F represent the associated spectra i.e. the frequency of these peptides detected in association with the AID protein as a measure of the abundance of the associated protein.

[2] = molecular target: Tmpo (mouse)
Source text: as §1, §2, §3

[3] = molecular target: T1, Tip2 (mouse)
T1 construct: Gene name as printed; possibly a misprint, not resolved
Source text: as §1, §2, §3

T1 sequence (Q9Z0U1 whole entry): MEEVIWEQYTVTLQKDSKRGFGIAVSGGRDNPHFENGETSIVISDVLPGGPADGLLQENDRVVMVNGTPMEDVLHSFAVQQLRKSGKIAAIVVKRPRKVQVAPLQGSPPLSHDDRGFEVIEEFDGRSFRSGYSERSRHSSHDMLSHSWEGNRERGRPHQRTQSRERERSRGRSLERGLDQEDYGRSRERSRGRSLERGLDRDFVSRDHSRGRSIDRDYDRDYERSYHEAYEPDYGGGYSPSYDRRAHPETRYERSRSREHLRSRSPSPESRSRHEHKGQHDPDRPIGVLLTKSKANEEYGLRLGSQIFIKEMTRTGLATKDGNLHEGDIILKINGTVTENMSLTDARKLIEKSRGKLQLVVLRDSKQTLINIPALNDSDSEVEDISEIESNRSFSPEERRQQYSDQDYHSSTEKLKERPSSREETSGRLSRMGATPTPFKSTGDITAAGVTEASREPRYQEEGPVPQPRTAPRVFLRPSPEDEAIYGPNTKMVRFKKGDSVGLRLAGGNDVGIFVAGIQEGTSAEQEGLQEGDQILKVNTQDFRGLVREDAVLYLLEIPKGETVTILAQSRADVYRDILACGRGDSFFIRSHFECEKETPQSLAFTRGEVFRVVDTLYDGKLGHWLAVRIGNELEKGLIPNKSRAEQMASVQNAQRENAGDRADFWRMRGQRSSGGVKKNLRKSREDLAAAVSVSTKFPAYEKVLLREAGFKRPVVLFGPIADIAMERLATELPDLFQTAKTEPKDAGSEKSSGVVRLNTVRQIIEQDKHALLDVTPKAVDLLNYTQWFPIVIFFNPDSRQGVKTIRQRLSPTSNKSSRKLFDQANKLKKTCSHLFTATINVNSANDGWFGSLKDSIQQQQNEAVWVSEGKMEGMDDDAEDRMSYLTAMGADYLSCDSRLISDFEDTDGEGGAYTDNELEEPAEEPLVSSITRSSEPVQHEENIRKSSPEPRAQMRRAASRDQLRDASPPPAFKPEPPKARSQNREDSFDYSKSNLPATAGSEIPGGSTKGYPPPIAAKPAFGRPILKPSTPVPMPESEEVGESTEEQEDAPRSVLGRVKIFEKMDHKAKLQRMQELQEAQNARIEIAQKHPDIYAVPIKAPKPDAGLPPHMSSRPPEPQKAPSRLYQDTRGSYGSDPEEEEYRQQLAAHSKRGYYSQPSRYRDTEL
Chain of Lmo7 (E9PYF4 entry or part of it): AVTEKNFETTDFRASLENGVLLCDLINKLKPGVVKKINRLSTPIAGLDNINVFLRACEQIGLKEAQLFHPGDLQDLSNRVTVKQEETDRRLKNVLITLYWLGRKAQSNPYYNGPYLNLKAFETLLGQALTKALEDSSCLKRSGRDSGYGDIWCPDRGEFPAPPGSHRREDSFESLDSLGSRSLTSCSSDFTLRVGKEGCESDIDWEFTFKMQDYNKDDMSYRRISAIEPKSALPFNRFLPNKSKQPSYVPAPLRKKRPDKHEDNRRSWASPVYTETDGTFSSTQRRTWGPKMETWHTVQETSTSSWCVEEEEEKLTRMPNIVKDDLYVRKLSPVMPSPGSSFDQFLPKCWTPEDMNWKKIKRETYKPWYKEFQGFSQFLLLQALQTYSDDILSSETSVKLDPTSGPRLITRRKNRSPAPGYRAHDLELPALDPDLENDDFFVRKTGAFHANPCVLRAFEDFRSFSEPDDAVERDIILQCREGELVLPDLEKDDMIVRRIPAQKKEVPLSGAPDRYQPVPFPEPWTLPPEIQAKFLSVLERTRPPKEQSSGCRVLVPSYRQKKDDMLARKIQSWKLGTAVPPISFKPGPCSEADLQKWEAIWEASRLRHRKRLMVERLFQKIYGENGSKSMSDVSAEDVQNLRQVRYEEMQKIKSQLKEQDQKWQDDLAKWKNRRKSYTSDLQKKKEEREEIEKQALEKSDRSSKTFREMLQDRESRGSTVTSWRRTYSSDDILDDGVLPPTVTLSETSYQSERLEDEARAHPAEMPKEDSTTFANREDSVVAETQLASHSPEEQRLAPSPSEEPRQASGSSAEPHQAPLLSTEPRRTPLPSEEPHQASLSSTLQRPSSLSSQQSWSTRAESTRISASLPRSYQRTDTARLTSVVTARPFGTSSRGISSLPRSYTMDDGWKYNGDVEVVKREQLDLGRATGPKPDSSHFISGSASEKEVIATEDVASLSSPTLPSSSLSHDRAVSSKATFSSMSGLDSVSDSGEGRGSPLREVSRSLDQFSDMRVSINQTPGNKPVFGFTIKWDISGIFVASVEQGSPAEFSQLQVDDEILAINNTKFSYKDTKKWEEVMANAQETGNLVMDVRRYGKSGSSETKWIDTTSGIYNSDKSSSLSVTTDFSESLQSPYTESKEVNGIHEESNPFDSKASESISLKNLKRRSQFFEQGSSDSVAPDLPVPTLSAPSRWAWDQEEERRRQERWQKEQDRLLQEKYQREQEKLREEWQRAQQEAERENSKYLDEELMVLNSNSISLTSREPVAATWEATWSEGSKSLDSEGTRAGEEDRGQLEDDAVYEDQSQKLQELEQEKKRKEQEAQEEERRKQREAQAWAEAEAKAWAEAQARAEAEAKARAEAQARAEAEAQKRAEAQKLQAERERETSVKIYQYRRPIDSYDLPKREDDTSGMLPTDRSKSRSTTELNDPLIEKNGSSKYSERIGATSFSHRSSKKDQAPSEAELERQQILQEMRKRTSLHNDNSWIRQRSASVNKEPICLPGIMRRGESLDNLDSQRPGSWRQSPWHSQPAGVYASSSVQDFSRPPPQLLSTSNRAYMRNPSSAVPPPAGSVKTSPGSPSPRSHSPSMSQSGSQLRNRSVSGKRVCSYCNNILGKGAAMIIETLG

B1: human AID containing two tandem Flag tags (Flag-human AID) (enzyme, UniProt Q9GZX7 1-198, looked up)
chain: MDSLLMNRRKFLYQFKNVRWAKGRRETYLCYVVKRRDSATSFSLDFGYLRNKNGCHVELLFLRYISDWDLDPGRCYRVTWFTSWSPCYDCARHVADFLRGNPNLSLRIFTARLYFCEDRKAEPEGLRRLHRAGVQIAIMTFKDYFYCWNTFVENHERTFKAWEGLHENSVRLSRQLRRILLPLYEVDDLRDAFRTLGL
notes: Stably overexpressed in mouse ES cells (CGR8) from the pHAGE-STEMCCA lentiviral vector; Two constructs (N-terminal or C-terminal 2x Flag) were made; also called AID-Flag protein; not shown: two tandem Flag tags
- Nucleus peptide [1]: 15 peptides
- Nucleus spectra [1]: 31 spectra
- Nucleus peptide [2]: 4 peptides
- Nucleus spectra [2]: 16 spectra
- Nucleus peptide [3]: 16 peptides
- Nucleus spectra [3]: 36 spectra
